The record followed here is patent publication US9567577B2, “Expression vector comprising a polynucleotide encoding a modified glutamine synthetase and a method for preparing a target protein employing the same” (ARES TRADING S.A., priority 2012, dated 2017).

This experiment concerns CHO K-1 cells. In words: TNFR-Fc expression level by ELISA of culture broth of CHO K-1 cells transfected with the expression vectors. As to conditions: inferred from TNFR-Fc expression under MSX. Type of experiment: cell-based. The procedure: In order to compare the productivity of TNFR-Fc fusion protein between the GS and DHFR gene expression systems, each of the expression vectors constructed in Example 4 was introduced into CHO K-1 cells so as to prepare each transformant.
In detail, CHO K-1 cells were cultured in a DMEM/F12 medium supplemented with 10% FBS, and 3 to 4×10^5 cells/well were inoculated into a 6 well-plate, followed by cultivation overnight. When the cells reached 80 to 90% confluence, each of the expression vectors was introduced thereto.
To achieve this, 4 μg of each of the expression vectors constructed in Example 4 and 250 μl of Opti-MEM were mixed with each other, and separately, 10 μl of Lipofectamine 2000 (Invitrogen) and 250 μl of Opti-MEM were mixed with each other. Then, each mixture was left at room temperature for 5 minutes. Subsequently, the mixtures were mixed with each other, and left at room temperature for 20 minutes.
Thereafter, the culture medium in the 6-well plate was replaced with 2 ml of Opti-MEM I media, and 500 μl of the final mixture was added to each well of the 6-well plate, followed by cultivation at 37° C. for 4 to 6 hours. The medium was replaced with the original culture medium (DMEM/F12 medium supplemented with 10% FBS), followed by further cultivation overnight. […]

B1: modified GS protein: hamster glutamine synthetase (SEQ ID NO. 4) with glycine at position 299 substituted with arginine (protein, listed as Cricetulus longicaudatus)
chain: MATSASSHLNKNIKQMYLCLPQGEKVQAMYIWVDGTGEGLRCKTRTLDCEPKCVEELPEWNFDGSSTFQSEGSNSDMYLSPVAMFRDPFRRDPNKLVFCEVFKYNRKPAETNLRHSCKRIMDMVSNQHPWFGMEQEYTLMGTDGHPFGWPSNGFPGPQGPYYCGVGADKAYGRDIVEAHYRACLYAGVKITGTNAEVMPAQWEFQIGPCEGIRMGDHLWVARFILHRVCEDFGVIATFDPKPIPGNWNGAGCHTNFSTKAMREENGLKHIEEAIEKLSKRHRYHIRAYDPKGGLDNARRLTGFHETSNINDFSAGVANRSASIRIPRTVGQEKKGYFEDRRPSANCDPFAVTEAIVRTCLLNETGDEPFQYKN
As to B1, the “sensitivity to GS inhibitors compared with wildtype GS protein” value is reported as “enhanced sensitivity”.
